Experiment [1] deals with RNR β2 (Escherichia coli) (UniProt P69924). The conditions noted are these: cited from earlier work.
Experiment [2] shares this target. The conditions noted are these: cited from earlier work. This is another data set of the same source.
Experiment [3] deals with dansyl-β2 (C268S/C305S/V365C-β2 labeled with BADAN) (E. coli). Briefly: stopped-flow fluorescence spectroscopy.
For experiment [4] the target is unchanged. Briefly: stopped-flow fluorescence spectroscopy. The source holds these as a separate data set.
Experiment [5] shares this target. Briefly: stopped-flow fluorescence spectroscopy. This is another data set of the same source.
The target is the same in experiment [6]. Briefly: stopped-flow fluorescence spectroscopy. The source holds these as a separate data set.
Experiment [7] concerns the target T1, His6-α2 (E. coli class Ia ribonucleotide reductase α subunit, NrdA) (E. coli, UniProt P00452 1-761).
T1 sequence (looked up): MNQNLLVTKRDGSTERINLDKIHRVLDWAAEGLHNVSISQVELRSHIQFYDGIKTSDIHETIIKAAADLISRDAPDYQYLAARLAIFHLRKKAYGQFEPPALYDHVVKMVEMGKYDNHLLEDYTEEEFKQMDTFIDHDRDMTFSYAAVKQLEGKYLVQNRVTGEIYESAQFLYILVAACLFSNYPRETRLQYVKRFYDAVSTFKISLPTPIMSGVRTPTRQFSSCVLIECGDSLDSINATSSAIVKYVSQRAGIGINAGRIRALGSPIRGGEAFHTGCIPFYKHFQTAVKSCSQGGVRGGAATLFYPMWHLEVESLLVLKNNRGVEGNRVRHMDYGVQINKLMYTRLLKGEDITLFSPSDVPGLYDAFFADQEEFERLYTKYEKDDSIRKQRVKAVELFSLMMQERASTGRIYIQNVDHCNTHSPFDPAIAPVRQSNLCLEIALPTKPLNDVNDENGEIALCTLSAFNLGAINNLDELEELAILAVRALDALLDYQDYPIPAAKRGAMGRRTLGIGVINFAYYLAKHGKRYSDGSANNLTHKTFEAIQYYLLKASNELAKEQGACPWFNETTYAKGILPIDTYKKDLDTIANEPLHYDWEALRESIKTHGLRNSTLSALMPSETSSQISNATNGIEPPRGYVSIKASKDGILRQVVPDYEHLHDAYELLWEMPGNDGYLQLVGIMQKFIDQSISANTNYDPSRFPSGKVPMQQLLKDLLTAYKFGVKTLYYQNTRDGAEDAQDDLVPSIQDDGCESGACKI
Briefly: stopped-flow fluorescence spectroscopy.

Like-named read-outs stand apart in the source and are kept apart here.

The term Kd denotes the concentration at which binding is half-saturated. Regarding RNR α2 (from UniProt P00452), the Kd in experiment [1] was 400 nM; in experiment [2], 200 nM.

B1: His6-α2 (E. coli class Ia ribonucleotide reductase α subunit, NrdA) (enzyme)
chain: T1 sequence (looked up)
As a reminder, the koff is the rate constant with which the complex falls apart. A word on the kon: it is the rate constant with which the complex forms. Higher therefore signals faster complex formation. On to B1, for which, in experiment [3], the k dissoc, faster phase of the biexponential decay (α4β4 state, with dATP) was determined as 7 s⁻¹; the k dissoc, slower phase of the biexponential decay (α4β4 state, with dATP) was determined as 0.46 s⁻¹; the koff turned out to be 109 s⁻¹; the kon came out at 1.63e+08 M⁻¹ s⁻¹. In addition, the kon in experiment [4] was found to be 1.56e+08 M⁻¹ s⁻¹. Also, the kon in experiment [5] came out at 1.93e+08 M⁻¹ s⁻¹. The kon in experiment [6] was 1.79e+08 M⁻¹ s⁻¹.

B2: met-β2 (wt-β2 with the tyrosyl radical reduced by hydroxyurea) (enzyme, E. coli, UniProt P69924 1-376, looked up)
chain: MAYTTFSQTKNDQLKEPMFFGQPVNVARYDQQKYDIFEKLIEKQLSFFWRPEEVDVSRDRIDYQALPEHEKHIFISNLKYQTLLDSIQGRSPNVALLPLISIPELETWVETWAFSETIHSRSYTHIIRNIVNDPSVVFDDIVTNEQIQKRAEGISSYYDELIEMTSYWHLLGEGTHTVNGKTVTVSLRELKKKLYLCLMSVNALEAIRFYVSFACSFAFAERELMEGNAKIIRLIARDEALHLTGTQHMLNLLRSGADDPEMAEIAEECKQECYDLFVQAAQQEKDWADYLFRDGSMIGLNKDILCQYVEYITNIRMQAVGLDLPFQTRSNPIPWINTWLVSDNVQVAPQEVEVSSYLVGQIDSEVDTDDLSNFQL
modifications: diferric center, Y122• reduced by hydroxyurea
For B2, the binding result in experiment [7] is recorded as “binds”.
